# Tested on: MS2 coat protein
# Assay: apparent KD of MS2 coat protein; higher = weaker reporter binding
# Details: Eterna round: R101
# Description: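 RNA-MaP: designed FMN/MS2 RNA switches (84 nt design region) are transcribed on-chip within common flanks and titrated with SNAP-549-labelled MS2 coat protein (about 1-3000 nM) in 100 mM Tris pH 7.5, 80 mM KCl, 4 mM MgCl2, without or with 200 uM FMN. Median apparent KD per design; activation ratio = KD,OFF / KD,ON.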
Sequence,apparent KD of MS2 coat protein (input ligand: FMN 200 uM),apparent KD of MS2 coat protein (input ligand: none)
AAAGAUUUUUAAGGAUAUCAGUGGCAAAGCCACUGAGAAGGUGAGGAUCACCCACCUACGUGACGCUGGAAACAGCGUCACGAA [#SharedSequence ExNG1 - 25] (puzzle (switch architecture): Exclusion NG 1),12.7 nM,13 nM
AAAGAUUUUUAAGGAUAUGACUCCGAAACGGAGUCAGAAGGUGAGGAUCACCCAUCUAGCUCAGGGUCGAAAGACCCUGAGCAA [#SharedSequence - ExNG1-15] (puzzle (switch architecture): Exclusion NG 1),78.3 nM,43.6 nM
AAAUAAUCCUCAGGAUAUGACUCCGAAACGGAGUCAGAAGGGAGGAUCACCCUCUUCAGCUCAGCGUCGAAAGACGCUGAGCAA [#SharedSequence ExNG1 - 23] (puzzle (switch architecture): Exclusion NG 1),11.9 nM,863 nM
AAAUGAUAUCAGAAGGCGUGGACGAAACGUCCACGAGGAUAUGAGGAUCACCCAUAUCAGGUCAGCCUGCAAAGCAGGCUGACC [#SharedSequence - IExNG1: 7-2] (puzzle (switch architecture): Inverted Exclusion NG 1),126 nM,15.6 nM
AAGUACAAGCAGAAGGCACAUGAGGAUCACCCAUGUCGGGCGUCCUGUAAGUGAGGAUAUGCUAAGUGACGGCCGCCUUGGCGG [Adienare] (puzzle (switch architecture): Inverted Small Loop Exclusion NG 1),22.6 nM,383 nM
AAUAAAAUUCUAGGAUAUGACUCCGAAACGGAGUCAGAAGGAGGAUCACCCUUUCAAAGCUCAGCGUCGAAAGACGCUGAGCAA [#SharedSequence - ExNG1-19] (puzzle (switch architecture): Exclusion NG 1),1160 nM,155 nM
AAUAAUCUUUAAGGAUAUGACUCCGAAACGGAGUCAGAAGGUGAGGAUCACCCACCUAGCUCAGGGUCGAAAGACCCUGAGCAA [#SharedSequence - ExNG1-9] (puzzle (switch architecture): Exclusion NG 1),10.6 nM,9.5 nM
AAUUAAAUCCUAGGAUAUGACUCCGAAACGGAGUCAGAAGGAGGAUCACCCUUUCAAAGCUCAGCGUCGAAAGACGCUGAGCAA [#SharedSequence - ExNG1-17] (puzzle (switch architecture): Exclusion NG 1),82.9 nM,649 nM
ACACAUGAGGAUCACCCAUGUAGCCGGCGUCUGCGCCAGCCACAGGAUAUACGGCAACACAAGCCGUAGAAGGGUGAUAAACAC [Lalearledi] (puzzle (switch architecture): Same State NG 3),33.9 nM,49.1 nM
AGAGCUGCUCAGAAGGAGGAUCACCCUUUCGAAAGAAAUACGGAGGCUGAAAAGCCUCCGAGAUUUUAGGAUAUGAGCAGCUCA [#SharedSequence - IExNG2: 8] (puzzle (switch architecture): Inverted Exclusion NG 2),89.1 nM,74.5 nM
AGCUAUGACAUGAGGAUCACCCAUGUAUACAUGGGAUUGACGUAGGAUAUGCUGAAGAUUAAAGUGCAGAAGGACGGCUUAGCG [JR #DistanceFar #Hairpin #NP SSNG3 Sub065] (puzzle (switch architecture): Same State NG 3),512 nM,1250 nM
AUCAGCUCGUGAGGAUAUACGUCACUGCGUCAGCAGUGUGGUAAGAUCACAUGAGGAUCACCCAUGUAGAAGGCACGAGCUGAU [#FlippingAptamerGcClosingBasepair - Ex NG2 #82] (puzzle (switch architecture): Exclusion NG 2),539 nM,23.6 nM
CACCUAAAUCCUAGAGGAUCACCCUAGGAUAUCACCGUCGAGGUGCCAUAAUGGCACCUCGACGGUGAGAAGGAGGAAAAAUAA [#SharedSequence - SLExNG3: 10] (puzzle (switch architecture): Small Loop Exclusion NG 3),5.85 nM,4.95 nM
CACCUAAAUCCUAGAGGAUCACCCUAGGAUAUCACCGUCGAGGUGCCAUAAUGGCACCUCGACGGUGAGAAGGAGGGUGAAAUA [#SharedSequence - SLExNG3: 8] (puzzle (switch architecture): Small Loop Exclusion NG 3),6.49 nM,5.08 nM
CCGACGUUUCAGAAGGCACUCGCAUAAUGCGAGUGAGGAUAUGAGGAUCACCCAUAUCAUCGUCGGAGUCACCGAAACGGUGAC [#SharedSequence - IEx NG 3-2] (puzzle (switch architecture): Inverted Exclusion NG 1),12.4 nM,7.89 nM
CCUGCACCUCAAGGAUAUCCAGUCGUUUCGACUGGAGAAGGUGAGGAUCACCCAUCUAGCCUGACGUUUGUCAGGCAUGCAGGU [#AddUracilToBrourdLoops 5 - Jieux - Exclusion NG1] (puzzle (switch architecture): Exclusion NG 1),929 nM,398 nM
CGCAUAGACAUGAGGAUCACCCAUGUAUAAAUAGGAUUAACGUAGGAUAUGCAGAAGAUUAAAGUGCAGAAGGACGGCUUUGCG [JR #DistanceFar #NP SSNG3 Sub070] (puzzle (switch architecture): Same State NG 3),7.52 nM,11.5 nM
CGCUAUUACAUGAGGAUCACCCAUGUAUAUAUGGGAUUUUCGUAGGAUAUGCAGAAGAUUAAAGUGCAGAAGGACGGAAUAGCG [JR #DistanceClose #Static #NP SSNG3 Sub066] (puzzle (switch architecture): Same State NG 3),31.9 nM,46.9 nM
CUGGUUGUCGUAGGAUAUGUAGGAUAUUCCUACAUGAGGAUCACCCAUGUUCGCAUGGAAGAAGGACAGAAGGACGAUGACCAG [salish99_SSNG2_013 #endbits investigation] (puzzle (switch architecture): Same State NG 2),9.22 nM,1320 nM
CUUACUUUGUAGAAGGGUGACAUGAGGAUCACCCAUGUGCGUCGCCUGGAAGACCAGGGUACGCCACAGGAUAUACAAAGUAAG [Gesoesla] (puzzle (switch architecture): Inverted Same State NG 2),113 nM,119 nM
GAAAUAUAGUCAGGAUAUCAGGACAUGAGGAUCACCCAUGUACUGAAUGGGCUGGUGAAAAGAGAUGAGAAGGGACACACUAGA [EternaBot874] (puzzle (switch architecture): Exclusion NG 2),5.79 nM,–
GCAGCUAAUGCAGGAUAUCAGCACGUGUAGUGCUGAGAAGGGCACAUGAGGAUCACCCAUGUGAUCAAUUAAUAUUAAUGCUGC [jl-eng1-3.00 #ENG1/11-B3_NECK] (puzzle (switch architecture): Exclusion NG 1),41.6 nM,13 nM
GCAGCUAAUGCAGGAUAUCAGCACGUGUAGUGCUGAGAAGGGCACAUGAGGAUUCUGACUGUGAUCAAUUAAUAUUAAUGCUGC [salish99#hingeEx3_55-58_005] (puzzle (switch architecture): Exclusion NG 1),14.8 nM,29.2 nM
GCCAUCGCAUGAGGAUAUGCUCGGGUUUCCCGAGCAGAAGGCAUGUCAUAAGACAUGAGGAUCACCCAUGUAGUUAAGAUGGCA [#HiddenHairpinInALoop - Mat - Same State NG 1 - JL mod - D3] (puzzle (switch architecture): Same State NG 1),12.7 nM,289 nM
GGAGAAACAUGAGGAUCACCCAUGUAGGAUAUCGGGCCCGGGCCCGGCGAAAGCCGGGCCCGGGACGAGAAGGGCGUAAACACC [#LOL] (puzzle (switch architecture): Small Loop Exclusion NG 3),8.72 nM,8.74 nM
GGCAGCACUUAGAAGGGAGUGCGAUAAUCGCACUCAGGAUAUGAGGAUCACCCAUAUCAAGCUGCCACUGAGGCAAAGCCUCAG [#SharedSequence - IEx NG 4-1] (puzzle (switch architecture): Inverted Exclusion NG 1),9.42 nM,10.6 nM
GGGUACAUCGGAGGAUAUCAUGUAAAUACAUGAGGAUCACCCAUGUCGAUGGAGACAUCGGAGAUUGAGAAGGCCGAUGUACCG (puzzle (switch architecture): Same State NG 2),8.42 nM,159 nM
GGGUACAUCGGAGGAUAUCAUGUAAAUACAUGAGGAUCACCCAUGUCGAUGGAGACAUGGGAGAUUGAGAAGGCCGAUGUACCG (puzzle (switch architecture): Same State NG 2),31.7 nM,22.5 nM
GGUCGUCACAUUAACAUGAGGAUCACCCAUGUCAAAAGACAUGAGGAUAUGCAUCCUAAUUGGAUGCAGAAGGCAUGGACGACC (puzzle (switch architecture): Same State NG 3),12.5 nM,216 nM
GUUGGAUUUCAGAAGGGCUCCAGCAAAGCUGGAGCAGGAUAUGAGGAUCACCCAUAUCAAUCUCCAGAAUUGAUAUGAAUCAAU [#SharedSequence - IExNG1: 9-1] (puzzle (switch architecture): Inverted Exclusion NG 1),317 nM,29.2 nM
